# The NTF2 design screens of Basanta et al. (2020)
# Assay: protease stability score; higher = more stable; yeast display proteolysis, trypsin and chymotrypsin;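 also: relative to predicted unfolded state with 0 unfolded-like and 1 meaning tenfold more protease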
row,Sequence,protease stability score
1,SEDEELVDHAWETYLRNLLTGDERTLADLIDPHVRVHINGVEFIGREELIKWLSEIRIRTIRVRRRSLINGRVEIIVDLELQVGDKHDRVTIYLIMDKFDGRWIHHTFSVE,0.41
2,SEDEKITKEATRIFLENLHTGDERTMDDNLDPNVLLIINGVELVGREFIVTWLKELRLKRQDIKSIDMRLINGVAHVFMDIHVEGNYNGRDRRSDEELRYIIRKIDGRWSIESVEIHIR,1.22
3,SEEEKDARDFIDYLVHHLETGDEEEFEKLIDPHTRLQVDGRHFHGREAYEWMLYQFKNVKIKHLTIRHIEIQGDKVHITSTWNLIVDGQEKELRTHIILDKVNGRWMIRKMRIQ,1.8
4,EEEKEHAREIVDILWELHETGDEEIFRTLADPDVRLLIGDKKIVGREEIWRKLKEVHKHWRLKSYHTRHLHVQGEKVTIDGVINGVYDGVDTSIDVNIQIFTFNGRFRSMREHYS,0.317
5,DELEDLAQKTHELFVQHYRTGDEDHLRHLLDPNAIMEIGDYHFIGREEILKFLVHWRIHRSEIKHLHVQGDKAEQEVEVDIEIGDKRFRTETHSIWIKINGKWFMHDFTVK,2.17
6,DEEHEIVELIMRIFLHAVLTGDWELIEKLADPNVRIIIRINGQEIHFHGREHLRHRFEHLRIDRMEIHDYKNVGDWLDIDGRENGNFNGRKHETRVHIHIRVINGKLHELRVTYR,1.68
7,TEEETRLREFMDRLLKIITTGDEKRFKDLADPHVRLFIDGVTIHGRDEAHEMWEIFGMKVKSTHVHEIHIQGDKVNIDTRLSGHFNGRDHIWEAHIYVVKIDGRWILEYIEIR,1.94
8,SEEHRLSEEIARIEVHAWITGDEHILHELLDPNTRLEVNGREYHGREIVLKMIREFWENLGAKHREVKRVRIELIDGRVTTHIKDKVSQGDKELEIIIEIITEKVNGRWVIRNMRIELR,2.7
9,SEEEEIVKRFIELLDHVMKTGDEKFYEHMADPNTRVKQGEFEDHGREAFRWFLKEIRSKDVKTEHVELFDGRLRVEGRLLGVFNGQHVELHMILISVKVDGRWRVKMVIIH,1.52
10,DHNKELWERIAEWLIRLQETGNEEELMKNMDPHTRLLVNGVTAHGRDTVTHYYREFLKELGVDVLELKRVHVQGEKVENDGQLHYNGKTHHSRINFFVINGRIHHIELHFE,0.745
11,SDLDQEMKTWLEETIRLLNTGNEEEWTKLADPNARVEIGDKHYHGWESLEELRKIFGVEKIDYRFTRIEVQGEKADSDVRIEVNGRELHVRLIIVVVNGRHKSMRVIFG,1.99
12,NDIEQIVREVLELIYHAIATGDWEHIYKNADPNVKYEQGDKEFHGREILSEMIVHIRLRDLELNRLHIVGDKVHIHGHFHMDINGRERLVKTEYIIRKVDGQWRLESLIIR,1.23
13,DQREETTNRALHEFIENLITGDEHELLRLLDPNTKMIWNGRENHGWKRAKTVLKEFLERIDVFKDHKLRNMELQGNKAEVEGQVIFEIDGKEVRHDLSLIFLKVDGKWMIESIEIR,1.34
14,SEDEEAAKHMFELLVHHIETGDEESLRKLLDPNVRMDIDGRIIHGREIFARQMFLESLHIRTEFRLKHVDTIGEKLHLFTEVTYKINGVHIKRDTRVIILKVDGRWVFHSIRFE,0.951
15,DEDEEAVRHVVEEWFKFLLTGDEESFEKMFDPSARLIIGDKHYHGRDLLSHVLRELRFKEHRIHDMEIRVVNGKAEVIIHGHEVGIWNGVESESHSEIIIIIDKYDGRWHFHSVEIIFR,2
16,DEFRKDADRALHMFEDKIRTGNWRELDKLLDPHVRFEYGDKIHHGREQFKYFMDRYDHITARDHKIDHVEFQGDYLHMDTTVDGELFIDGKNIRIVNKSKLVLLKVNGRWTMHFLSHD,0.818
17,SEEEKHAHEMVRIFLHILKTGDWRTLEKLLDPDVRMSLDINGREHHQVGREEVLKAFIRFLDEWRMDDLHLHDVTIQGDKAYLETEVHITFNGQRHHTHLEIEIYVINGKIKSIRLTIR,2.36
18,DEDEERVKLASELYTHIMHTGDERLTKEFFDPRVRSDINGRELHGREIITEMVSRYKNMTLHSHREEVQGEWAFIDGRMEYGDKEWKIHIITLKVNGRWVVTEIEFH,0.778
19,DEREELAEHMIRLLTERLITGDERIEQELADPNVRFELDINGKSVDTHGMENVLEWIRKWYEHFGVTNFDLRIHRIRVIGEYAHNDGEIIQGDKTRRVHIRMVVINGRVHEVIIHVR,1.22
20,SEDEELVRRAVHRFIKLLETGDWDKIQNNVDPHVRLHVDGVDFIGRELFIHWVDRVKGMRHDIRDVRIEFHGDKAHIDMVTELEIGDKRRETRVHLVMRKINGRWIIESEEYRII,2.64
21,DDREKLWHRLVELEKELWLTGDFEDFHSLADPNVQLIVHFDGQEVHYHGRESVTMALKILREQLGADHFEPKSVHYQGNKMQTSMILFVNGREFEFRLTLFVIDGRLKSHHIEWK,1.48
22,SEIWHLAENLSHLWMHKILTGDEDSIRNLLDPNARVHVNGKEVHGREETVKFMRHRVDEMGVDHMHFELKRFEVQGNYAIHHGTLIIHVDGREIRIESTIHLLKVNGRWLITDSSER,0.845
23,DEKEKVVRIAQEIINTIIHTGDERILEEFIDPNVRFYFNGQEFHGRELMSEIEKKHRDRFKNLRIFVEDTHVEVYGEWLRIKVHLRLEIGDKRHELHLDIIALKVNGRWLNKSAELRVE,1.64
24,DEDEKIVKHMLEVLIHLILTGDWEMFQKLADPNTRLDINGREQVGWESVTKNLEHMRYHDIRSQHIEIQGNKLRNLTRVDGEVDGVRREIEVHIYSTKINGKWRLTSMQFH,1.1
25,SEDEKNVEEMSRRLSHVLKTGDEESFSRLADPNARHIYNGRILHGWENFVRFLRHLWEHARIHELHVHDFEYQGDFMHVDSRLNGDINGQQMIFTTHLYNIKINGRWFLTEVKIV,0.429

row,Sequence,protease stability score
1,DEKNHLWDEISEIFVQNWVTGDEDSLRHMADPNVRTDINGVELHGMEETNRFIIEELKHARSRVHLEHRDAVNGRIHLQTELYSNVDGQEIRYKTRIILIVVNGRLKEIKFIQH,0.581
2,DEEEELTKRFLDIMLHNLKTGNEEEISKMADPNVKLDIGDKENHGRESMSRAWHEELRRLGAKHIDVRSVELQGDKLIIRMRLEVDGRTFEVLIIIIVVDGRLKHIQFKSH,0.704
3,DELTNEHERYLHFLWEMIKTGDEENLENLVDPHARLEFENREFHGREDVRKWLVEIRFHRVHLRRMEVQGNKVILDTELDGEFNGQRVRHTTKTHALKVNGQWLLHELIIK,1.25
4,DEEEHDVEVAFREYVKSTKTGDEDTLRHLADPHVKIWVDGRDFHGREVYYRLEKKIMEEWRFHDMHVEHVLVQGNKMTLHTRIDGEFDGKKVNLEVIIISVKVDGQWMIHSLEHR,2.22
5,REDEEWLERLLRIIEKAMRTGDEQLTKELFDPNVRLEVGDKIIIGWEELTKIMHEMRVRDSRIHRVRTVGDKVEADTTVNGEIDGREFETEVRIEMLKVDGQWVVDKVHFK,1.89
6,SEDEKDARIAVKLLWEIFQTGDEDLFTKFIDPNTRSEINGREIHGREDVYRLMEELGIKVIRVHDVKTQGDKVHLTMEVTVNGRRHRVHFIFEKIDGRWIARHEKVE,1.45
7,SEEEELARQVLELWIHWYQTGDEESFRKNIDPHTRFDINGKHLHGREHVSKHLHDRAREMRIHDVFIKDVRLQGEKARMDGVIDGTIGDKRHEFKVEVTVQSINGRIDHLEFRFR,1.18
8,KESEEDARKFWEKMVEDNRTGDWDSFEKLVDPHVKMLFNGREYHGRDELLDLFRHIRFKDHEIHDMKVIGNKVRMDTRVHLNVNGREISVDTHLVVEKINGRWVLHSVLFH,1.62
9,SELEERAEKMTKEFERAFVTGNWEEQVKLLDPNVRIDINGVIFVGREQYERLVREIWMHVEDFRVTSLELQGEKARTHVESDVIIRVNGRDIRKKTEEEIVVSKINGVWSVERIHVR,1.24
10,DEDEENARKVSKKYKEIVLTGDEHALERLIDPNVRIDFNGKEFHGREDLSRLFHERFKRADHIEFDVKHINVQGNKVDLDVREIEIVGDKTHVHNVILHVLKIDGRWLIKEIRVH,1.26
11,DELREDSERAEEWLITASETGNEEDILKLADPNTRIDINGKDLHGRESLEHFIRRYKGVTVRIRHRDIINGKLHLDTELRIDGVTLRTELIITKVNGRWYLEEQIVR,1.07
12,TEEDEEVEWVLKVLKETNDTGDEHTFRKLMDPRTKFHINGKDYIGMEAWREQVEKLGFKHIHDIKIEDMRVYNGRIQLHGRVDMVQGDKKIDMHVILIAVKVNGRWLLRFDIVE,1.38
13,HEEEEEIVRHLEKLLRDLWTGDWDDIEHNLDPNVRIEYGEKTRVGREKFVKTFFDMGMKLRHVRINEFHVVDGRLHVDTRIDGNFNGVEFRTRVEIIAVKINGKWVLHSVHIL,1.22
14,HEEKHLMDEALELIKYFTETGDERQLTEYADPNVRIDIDGQRFHGREDWEELVREWNSRFKNLKFNFREIDVQGEFIHTRGELNVNGKRFDVRIVSDKINGRWILHSIHFE,1.58
15,DEREEFIHIAIHLLIHVDRTGDEDTYRKMMDPTTKLEVNGVKYIGRQEVIKFLRHIRIDSQDIKRWELVGDKVDLDVHVDGDVNGRRVREDRQIHLWKVDGRWVLEKIEYK,0.955
16,DERTKQFNELLHIFIRDLHTGDEESHERMMDPNVRTEVGEFRMHGRENVRHWWHEWLRLLGLDRIEVRVRDHHVIDGRLRIDVELKQGDKNIDTHVILVVINGRMHSQRYEFH,0.717
17,DEDLEETRKLIELLTRAFFTGDEDEMKNLADPSVRIIINGREVHGMDEWVRLLEEIRLEDVHSNLRDIRYFNGVVEVDGEFRLDGNINGRRFHHVFDLRLYVIKVNGRWRVKSWRNI,1.83
18,DEEEEDIEKFFKEWTRNVLTGNWERLRELADPHAKAVVDGVETHGMESLDKLIDESERKLGVDHTHLESVHVQGEWIHFHLRIIIGDKYLKLHIHTLVIDGRVKSMNVEFHSD,1.16
19,SEDEELAQTFLELWVHFLRTGDESMLEQYIDPHARFKVGDKEDHGMKVFKDLLHHIRIEDFRVHHVEIRIVGEWIEIRMDITLHGRVDGVRDTKRVHVHINAEKYNGRWRIKELEIRHR,1.74
20,DEEHEQLERLARDYMHSTETGDEESIRRFFDPHTRYDIDGKESHGWEMIKHWMEEWRIDSVTIHSIHRINGVAHIDVTVHGEIGDKQTTFRVIIDLVIVNGKVHEIRIIFE,-0.086
21,DESEKLEELIHERLRHLIETGDEDKLAKMADPNVRNRVGDFVHHGRERSHELLKWIFDHLGIDHLHIKHSSVIDGVVHFEIELRINGRTIRLHDHWFFINGRLDEISIHWE,0.93
22,SETEEEAERFEKILLHYRKTGNEDDLLNFIDPHVRIHQGDKEIHGRELYLELMRRWKEIAGHDFFFMNIHDVEIQGEKAIIDGRLFVNGVHHKIKVIFKKINGRWIVESEHIH,0.889
23,REKDDEMDRIVKIFYHVLRTGNEELLDTLIDPDTRIEVDINGVNYISHGREEWKRVIEELLRHMRINSIIIHDIRYQGNKATIDNHADLEFDGVRFEMRSELRIIVVNGRYRSFSRIIR,1.13
24,SEEEEEMKRFIEDELRAWRTGDEDLIHEQFDPHVRVIIGEFEYHGRELLHEMFNRIDHIEHIELRIHHVHLQGDKAHLEVEEREHGVFDGKRINVSREINIIIHKIDGRWVHTIIIIE,0.606
25,SENKRVAVEWVRDFLRALRTGDEDRVRQLADPHVRIDFNGRDHHGRHFLVRMLREIRIHDVRIRDVDVQGDFLITELEIDVEIDGKRDTLRMNIIFEKVDGRWMVSEVQFE,1.5
